{
  "source": "patent US5622828",
  "about": "“High-affinity oligonucleotide ligands to secretory phospholipase A2 (sPLA2)” (Nexstar Pharmaceuticals, Inc.)",
  "binders": {"B1": {"name": "NN27 (ssRNA)", "RNA": "GGGAAAAGCGAAUCAUACACAAGACCGGCCGGGGAAACCCGAGGUCCGAUGUAACGCAUGGCGCCUCACCGAGUCGCUCCGCCAGAGACCAACCGAGAA", "modifications": "2'-NH2 all C and U"}, "B2": {"name": "93 (ssRNA)", "RNA": "GGGAGCUCAGAAUAAACGCUCAACAGCCAAUGUGUCCCGUACGGCGUAUCCUAUUCGACAUGAGGCCCGGAUCCGGC"}, "B3": {"name": "72 (ssRNA)", "RNA": "GGGAGCUCAGAAUAAACGCUCAAGACCUCUGCUUACAGCCCGGCUGAGACACUUCGACAUGAGGCCCGGAUCCGGC"}, "B4": {"name": "NN19 (ssRNA)", "RNA": "GGGAAAAGCGAAUCAUACACAAGACCGGCCGGCGCCAUAGCCGAGAUCCGAGGUGUUGAACGAUAACUCGGUGCUCCGCCAGAGACCAACCGAGAA", "modifications": "2'-NH2 all C and U"}, "B5": {"name": "NN19.15 (ssRNA)", "RNA": "GGGAAAAGAAGACCGGCCGGCGCCAUAGCCGAGAUCCGAGGUGUUGCCGAGAA", "modifications": "2'-NH2 all C and U"}, "B6": {"name": "95 (ssRNA)", "RNA": "GGGAGCUCAGAAUAAACGCUCAACGCUGGAUACCAUCGCACGGCGUAUCCUGCUUCGACAUGAGGCCCGGAUCCGGC"}, "B7": {"name": "1 (orphan) (ssRNA)", "RNA": "GGGAGCUCAGAAUAAACGCUCAAGCCGAACCGAAUGGAGGUGGAGGGAUUGCGUUCGACAUGAGGCCCGGAUCCGGC"}, "B8": {"name": "85 (ssRNA)", "RNA": "GGGAGCUCAGAAUAAACGCUCAAAUUGCAUCAUGUACCGCAAGACGUAUUCUAUUCGACAUGAGGCCCGGAUCCGGC"}, "B9": {"name": "54 (ssRNA)", "RNA": "B8 RNA with C40U"}, "B10": {"name": "18 (ssRNA)", "RNA": "B8 RNA with U26C"}, "B11": {"name": "60 (orphan) (ssRNA)", "RNA": "GGGAGCUCAGAAUAAACGCUCAAACAACGGCCCACACGGGAGAUCCGAGAAAAGUUCGACAUGAGGCCCGGAUCCGGC"}},
  "key": {"[1]": {"target": "T1, secretory phospholipase A2 (sPLA2) (Homo sapiens, UniProt P14555 P14555:21-144)", "T1 sequence": "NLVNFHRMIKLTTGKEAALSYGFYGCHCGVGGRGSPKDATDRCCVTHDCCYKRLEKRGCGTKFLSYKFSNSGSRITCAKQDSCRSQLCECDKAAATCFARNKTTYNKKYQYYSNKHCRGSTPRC", "assay": "filter; biphasic, Kd2 150 nM, mole fraction 0.2; conserved G replaced by U; TBSC, 37 C", "conditions": "tags: supplied by Eli Lilly; hairpin with asymmetric internal loop", "description": "(§1) The nitrocellulose filter partitioning method was used as described in SELEX Patent Applications to determine the affinity of RNA ligands for sPLA_2 and for other promins. Filter discs (nitrocellulose/cellulose acetate mixed matrix, 0.45 µm pore size, Millipore) were placed on a vacuum manifold and washed with 5 ml of TBSC buffer under vacuum. Reaction mixtures, containing ^32P labeled RNA pools and sPLA_2, were incubated in TBSC for 5 minutes at 37° C., filtered, and then immediately washed with 5 ml TBSC. The filters were air-dried and counted in a Beckman liquid scintillation counter without fluor.\n(§2) The dissociation constants for representative members of families I–VI, orphan and other ligands were determined by nitrocellulose filter binding experiments and are listed in Table III. Unlike random RNA, all tested ligands from the 2'OH SELEXes bound biphasically."}, "[2]": {"target": "T1, secretory phospholipase A2 (sPLA2)", "assay": "filter; biphasic, Kd2 82 nM, mole fraction 0.50; TBSC, 37 C", "conditions": "tags: supplied by Eli Lilly", "description": "as §1, §2"}, "[3]": {"target": "pancreatic phospholipase A2 (bpPLA2) (Bos taurus, UniProt P00593 P00593:23-145)", "sequence (P00593 23-145, one chain of several)": "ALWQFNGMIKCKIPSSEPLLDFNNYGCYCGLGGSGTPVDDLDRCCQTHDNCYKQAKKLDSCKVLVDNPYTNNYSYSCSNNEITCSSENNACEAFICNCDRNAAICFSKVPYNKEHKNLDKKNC", "assay": "filter; specificity control, like random RNA; TBSC", "description": "(§3) The affinity of sPLA_2 ligands 2, 72, 80, 87, NN19 and NN19.15 (SEQ ID NOs.:11, 20, 53, 54, 64, and 117, respectively) for proteins other than sPLA_2 was determined by nitrocellulose partitioning (Tables IV and V). Like sPLA_2, hen egg white lysozyme, bFGF and elastase are small, highly cationic proteins. Bovine pancreatic PLA_2 is an evolutionarily and structurally related enzyme. […] Specificity is particularly well illustrated by the affinities for bovine pancreatic PLA_2 which is 10^4-fold less than that for human sPLA_2.\n(§4) *Standard binding experiments were performed to the specified target protein in TBSC and K_d's is calculated by curve fitting. The ligands bind no better than randomized RNA (30N1) to lysozyme (hen egg-white), human basic fibroblast growth factor basic (bFGF) and bovine pancreatic PLA₂. The sPLA₂ K_d that of the high affinity species."}, "[4]": {"target": "T2, basic fibroblast growth factor (bFGF) (Homo sapiens, UniProt P09038 P09038:143-288)", "T2 sequence (P09038 143-288, one chain of several)": "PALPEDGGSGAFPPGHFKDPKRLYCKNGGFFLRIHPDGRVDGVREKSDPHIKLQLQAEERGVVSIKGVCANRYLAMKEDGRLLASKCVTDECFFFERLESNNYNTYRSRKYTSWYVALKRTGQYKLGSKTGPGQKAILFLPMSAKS", "assay": "filter; specificity control, like random RNA; TBSC", "description": "as §3, §4"}, "lysozyme (egg white)": {"target": "lysozyme (egg white) (Gallus gallus, UniProt P00698 P00698:19-147)", "sequence (P00698 19-147, one chain of several)": "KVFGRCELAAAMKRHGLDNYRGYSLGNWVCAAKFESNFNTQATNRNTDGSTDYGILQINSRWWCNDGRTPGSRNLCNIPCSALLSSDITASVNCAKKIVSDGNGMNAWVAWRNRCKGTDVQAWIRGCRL", "assay": "filter; specificity control, like random RNA; TBSC", "conditions": "tags: 6x crystallized", "description": "as §3, §4"}, "[5]": {"target": "T1, secretory phospholipase A2 (sPLA2)", "assay": "filter; biphasic, Kd2 270 nM, mole fraction 0.13; Table III prints SEQ 103, Table IV SEQ 20; TBSC, 37 C", "conditions": "tags: supplied by Eli Lilly", "description": "as §1, §2"}, "[6]": {"target": "T2, basic fibroblast growth factor (bFGF)", "assay": "filter; specificity control, like random RNA; TBSC", "description": "as §3\n(§5) *Standard binding experiments were performed to the specified target protein in TBSC and K_d's calculated by curve fitting. The ligands bind no better than randomized RNA (30N1) to human neutrophil elastase, human basic fibroblast growth factor (bFGF), and human immunoglobulin G (IgG and C1q).", "remark": "listed apart in the source"}, "neutrophil elastase": {"target": "neutrophil elastase (Homo sapiens, UniProt P08246 P08246:30-267)", "sequence (P08246 30-267, one chain of several)": "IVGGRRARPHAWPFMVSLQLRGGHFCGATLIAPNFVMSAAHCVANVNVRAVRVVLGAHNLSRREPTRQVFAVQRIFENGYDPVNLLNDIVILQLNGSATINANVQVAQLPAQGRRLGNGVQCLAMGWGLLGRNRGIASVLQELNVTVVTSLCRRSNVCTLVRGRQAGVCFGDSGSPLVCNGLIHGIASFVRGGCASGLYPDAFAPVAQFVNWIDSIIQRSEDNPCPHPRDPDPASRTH", "assay": "filter; specificity control, like random RNA; TBSC", "description": "as §3, §5"}, "[7]": {"target": "T1, secretory phospholipase A2 (sPLA2)", "assay": "filter; monophasic; Table V prints 1 nM; TBSC, 37 C", "conditions": "tags: supplied by Eli Lilly; hairpin with asymmetric internal loop"}, "C1q (printed Clq)": {"target": "C1q (printed Clq) (Homo sapiens, UniProt P02745;P02746;P02747 P02745:23-245,P02746:28-253,P02747:29-245)", "sequence (P02745 23-245, chain 1 of 3)": "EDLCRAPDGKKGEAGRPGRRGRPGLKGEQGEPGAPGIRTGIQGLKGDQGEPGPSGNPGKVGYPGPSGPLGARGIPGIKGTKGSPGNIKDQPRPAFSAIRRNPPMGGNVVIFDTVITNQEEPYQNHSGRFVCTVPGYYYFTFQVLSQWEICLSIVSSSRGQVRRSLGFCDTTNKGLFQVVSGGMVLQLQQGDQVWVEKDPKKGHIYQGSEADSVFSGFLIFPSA", "sequence (P02746 28-253, chain 2 of 3)": "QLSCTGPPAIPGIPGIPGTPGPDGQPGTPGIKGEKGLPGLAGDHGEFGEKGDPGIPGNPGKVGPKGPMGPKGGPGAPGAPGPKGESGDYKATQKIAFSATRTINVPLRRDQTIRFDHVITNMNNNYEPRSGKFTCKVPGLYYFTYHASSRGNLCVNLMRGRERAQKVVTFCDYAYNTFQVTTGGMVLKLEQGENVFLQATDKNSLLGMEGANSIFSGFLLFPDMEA", "sequence (P02747 29-245, chain 3 of 3)": "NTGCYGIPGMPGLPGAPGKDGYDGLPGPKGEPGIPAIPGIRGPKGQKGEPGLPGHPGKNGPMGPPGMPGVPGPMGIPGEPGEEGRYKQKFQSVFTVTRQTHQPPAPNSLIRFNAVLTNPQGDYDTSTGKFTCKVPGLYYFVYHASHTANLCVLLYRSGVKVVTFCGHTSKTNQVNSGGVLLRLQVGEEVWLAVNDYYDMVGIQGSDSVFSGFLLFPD", "assay": "filter; specificity control, like random RNA; TBSC", "conditions": "chain copies: 6", "description": "as §3, §5"}, "[8]": {"target": "T1, secretory phospholipase A2 (sPLA2)", "assay": "filter; Table V prints 0.4 nM; TBSC, 37 C", "conditions": "tags: supplied by Eli Lilly"}, "[9]": {"target": "T1, secretory phospholipase A2 (sPLA2)", "assay": "filter; biphasic, Kd2 140 nM, mole fraction 0.65; TBSC, 37 C", "conditions": "tags: supplied by Eli Lilly", "description": "as §1, §2"}, "[10]": {"target": "T1, secretory phospholipase A2 (sPLA2)", "assay": "filter; biphasic, Kd2 43 nM, mole fraction 0.25; TBSC, 37 C", "conditions": "tags: supplied by Eli Lilly", "description": "as §1, §2"}, "[11]": {"target": "T1, secretory phospholipase A2 (sPLA2)", "assay": "filter; biphasic, Kd2 92 nM, mole fraction 0.60; TBSC, 37 C", "conditions": "tags: supplied by Eli Lilly", "description": "as §1, §2"}, "[12]": {"target": "T1, secretory phospholipase A2 (sPLA2)", "assay": "filter; biphasic, Kd2 350 nM, mole fraction 0.70; TBSC, 37 C", "conditions": "tags: supplied by Eli Lilly", "description": "as §1, §2"}, "[13]": {"target": "T1, secretory phospholipase A2 (sPLA2)", "assay": "filter; biphasic, Kd2 240 nM, mole fraction 0.50; TBSC, 37 C", "conditions": "tags: supplied by Eli Lilly", "description": "as §1, §2"}, "[14]": {"target": "T1, secretory phospholipase A2 (sPLA2)", "assay": "filter; biphasic, Kd2 200 nM, mole fraction 0.20; calcium dependent; TBSC, 37 C", "conditions": "tags: supplied by Eli Lilly", "description": "as §1, §2"}, "[15]": {"conditions": "hairpin with asymmetric internal loop"}},
  "note": "Residue numbers refer to the chain shown, from its start. Where two headings read alike, the source gives them in different places.",
  "data": [
    {"binder": "B1", "values": [
      {"measurement": "Kd", "setting": "[1]", "result": 0.4, "unit": "nM"}
    ]},
    {"binder": "B2", "values": [
      {"measurement": "Kd", "setting": "[2]", "result": 17.2, "unit": "nM"}
    ]},
    {"binder": "B3", "values": [
      {"measurement": "Kd", "setting": "[3]", "result": 29000, "unit": "nM"},
      {"measurement": "Kd", "setting": "[4]", "result": 180, "unit": "nM"},
      {"measurement": "Kd", "setting": "lysozyme (egg white)", "result": 1500, "unit": "nM"},
      {"measurement": "Kd", "setting": "[5]", "result": 0.5, "unit": "nM"}
    ]},
    {"binder": "B4", "values": [
      {"measurement": "Kd", "setting": "[6]; [15]", "result": 210, "unit": "nM"},
      {"measurement": "Kd", "setting": "neutrophil elastase; [15]", "result": 40, "unit": "nM"},
      {"measurement": "Kd", "setting": "[7]", "result": 0.4, "unit": "nM"}
    ]},
    {"binder": "B5", "values": [
      {"measurement": "Kd", "setting": "C1q (printed Clq)", "result": 1000, "unit": "nM"},
      {"measurement": "Kd", "setting": "[6]", "result": 165, "unit": "nM"},
      {"measurement": "Kd", "setting": "neutrophil elastase", "result": 40, "unit": "nM"},
      {"measurement": "Kd", "setting": "[8]", "result": 1.7, "unit": "nM"}
    ]},
    {"binder": "B6", "values": [
      {"measurement": "Kd", "setting": "[9]", "result": 4.5, "unit": "nM"}
    ]},
    {"binder": "B7", "values": [
      {"measurement": "Kd", "setting": "[10]", "result": 1.4, "unit": "nM"}
    ]},
    {"binder": "B8", "values": [
      {"measurement": "Kd", "setting": "[11]", "result": 3.8, "unit": "nM"}
    ]},
    {"binder": "B9", "values": [
      {"measurement": "Kd", "setting": "[12]", "result": 16.6, "unit": "nM"}
    ]},
    {"binder": "B10", "values": [
      {"measurement": "Kd", "setting": "[13]", "result": 5, "unit": "nM"}
    ]},
    {"binder": "B11", "values": [
      {"measurement": "Kd", "setting": "[14]", "result": 0.3, "unit": "nM"}
    ]}
  ]
}
